Literature values, collected in article PMC10878502.

Columns and labels:
[1] = target: ASPP1 (Homo sapiens) (UniProt Q96KQ4)
[2] = target: ASPP2 (Homo sapiens) (UniProt Q13625)
[3] = target: iASPP ANK-SH3 (Homo sapiens) (UniProt Q8WUF5)
[4] = target: ASPP2 ANK-SH3 (Homo sapiens) (UniProt Q13625)
Sequence of ASPP2 ANK-SH3 (Homo sapiens) (Q13625 892-1128): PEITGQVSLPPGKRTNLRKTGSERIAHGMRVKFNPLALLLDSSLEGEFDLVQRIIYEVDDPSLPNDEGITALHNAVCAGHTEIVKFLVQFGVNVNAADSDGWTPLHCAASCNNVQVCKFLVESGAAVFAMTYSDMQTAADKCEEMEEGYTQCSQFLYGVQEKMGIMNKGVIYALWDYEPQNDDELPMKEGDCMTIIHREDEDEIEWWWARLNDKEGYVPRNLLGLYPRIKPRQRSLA

Sequence of ASPP2 (Homo sapiens) (Q13625 whole entry): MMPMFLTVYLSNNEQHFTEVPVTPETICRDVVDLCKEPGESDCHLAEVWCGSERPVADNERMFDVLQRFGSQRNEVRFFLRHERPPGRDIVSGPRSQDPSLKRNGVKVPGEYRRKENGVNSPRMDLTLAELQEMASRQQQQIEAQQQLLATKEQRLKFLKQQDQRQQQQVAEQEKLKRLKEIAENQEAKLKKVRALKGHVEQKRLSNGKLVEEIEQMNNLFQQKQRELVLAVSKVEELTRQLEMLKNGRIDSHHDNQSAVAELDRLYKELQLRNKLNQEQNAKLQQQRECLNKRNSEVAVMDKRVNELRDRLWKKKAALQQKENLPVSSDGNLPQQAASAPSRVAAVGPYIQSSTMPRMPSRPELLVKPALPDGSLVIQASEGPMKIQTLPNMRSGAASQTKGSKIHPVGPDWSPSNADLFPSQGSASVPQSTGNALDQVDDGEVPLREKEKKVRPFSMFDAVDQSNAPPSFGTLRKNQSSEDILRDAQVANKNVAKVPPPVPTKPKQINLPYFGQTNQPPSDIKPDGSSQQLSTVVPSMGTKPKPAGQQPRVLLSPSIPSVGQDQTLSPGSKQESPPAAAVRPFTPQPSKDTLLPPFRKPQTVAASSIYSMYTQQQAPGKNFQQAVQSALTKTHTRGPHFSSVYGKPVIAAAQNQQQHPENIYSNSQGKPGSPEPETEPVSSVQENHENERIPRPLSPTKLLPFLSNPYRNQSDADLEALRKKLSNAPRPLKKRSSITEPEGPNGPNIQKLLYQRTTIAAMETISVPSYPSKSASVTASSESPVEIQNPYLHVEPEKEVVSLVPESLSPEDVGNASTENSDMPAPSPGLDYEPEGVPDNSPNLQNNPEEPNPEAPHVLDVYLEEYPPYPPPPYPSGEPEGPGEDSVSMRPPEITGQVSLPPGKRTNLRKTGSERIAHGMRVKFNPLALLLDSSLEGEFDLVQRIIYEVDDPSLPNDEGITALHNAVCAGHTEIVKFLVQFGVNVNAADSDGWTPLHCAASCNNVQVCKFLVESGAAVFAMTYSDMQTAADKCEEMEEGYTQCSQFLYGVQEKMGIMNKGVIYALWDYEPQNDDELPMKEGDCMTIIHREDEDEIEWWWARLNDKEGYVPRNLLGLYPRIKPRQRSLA
Sequence of ASPP1 (Homo sapiens) (Q96KQ4 whole entry): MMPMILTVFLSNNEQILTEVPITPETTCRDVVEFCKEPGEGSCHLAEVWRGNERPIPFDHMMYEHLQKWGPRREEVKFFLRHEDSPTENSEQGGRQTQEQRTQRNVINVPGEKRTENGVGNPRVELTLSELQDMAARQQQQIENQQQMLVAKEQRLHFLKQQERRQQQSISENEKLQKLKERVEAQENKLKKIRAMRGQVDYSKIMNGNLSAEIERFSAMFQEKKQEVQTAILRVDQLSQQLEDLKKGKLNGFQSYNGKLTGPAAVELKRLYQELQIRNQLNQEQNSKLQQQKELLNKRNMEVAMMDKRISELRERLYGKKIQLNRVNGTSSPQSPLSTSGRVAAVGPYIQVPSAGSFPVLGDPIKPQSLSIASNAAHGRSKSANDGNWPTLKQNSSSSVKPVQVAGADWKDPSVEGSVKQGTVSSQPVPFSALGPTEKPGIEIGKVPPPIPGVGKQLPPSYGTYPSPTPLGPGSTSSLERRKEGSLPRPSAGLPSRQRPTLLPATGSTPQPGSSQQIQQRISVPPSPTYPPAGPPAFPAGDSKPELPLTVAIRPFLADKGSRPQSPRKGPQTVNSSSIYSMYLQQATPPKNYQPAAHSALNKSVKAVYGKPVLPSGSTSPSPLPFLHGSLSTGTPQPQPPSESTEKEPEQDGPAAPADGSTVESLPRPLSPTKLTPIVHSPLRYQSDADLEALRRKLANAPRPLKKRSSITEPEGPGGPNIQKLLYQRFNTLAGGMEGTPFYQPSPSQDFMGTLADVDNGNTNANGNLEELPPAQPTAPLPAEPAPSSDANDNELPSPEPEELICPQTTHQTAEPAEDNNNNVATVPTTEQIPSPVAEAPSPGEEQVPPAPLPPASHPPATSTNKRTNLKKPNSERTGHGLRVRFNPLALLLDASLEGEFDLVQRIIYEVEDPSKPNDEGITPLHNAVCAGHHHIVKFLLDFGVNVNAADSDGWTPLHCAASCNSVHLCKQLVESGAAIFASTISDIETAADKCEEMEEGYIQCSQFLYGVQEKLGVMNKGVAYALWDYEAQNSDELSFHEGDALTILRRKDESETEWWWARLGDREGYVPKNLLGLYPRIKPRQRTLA
Sequence of iASPP ANK-SH3 (Homo sapiens) (Q8WUF5 608-828): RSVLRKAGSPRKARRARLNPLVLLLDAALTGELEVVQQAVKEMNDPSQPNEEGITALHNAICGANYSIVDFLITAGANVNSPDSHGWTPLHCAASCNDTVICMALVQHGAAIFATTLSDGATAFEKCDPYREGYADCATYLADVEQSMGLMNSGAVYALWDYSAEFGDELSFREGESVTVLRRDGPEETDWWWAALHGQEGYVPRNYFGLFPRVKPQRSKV

Kd [1] [nM]	Kd [2] [µM]	Kd [3] [nM]	Kd [4] [nM]	Substance
500	5			p53 (from UniProt P04637)
		23.3	26.4	p53 DBD (from UniProt P04637)
